Substitutions are numbered along the chain they refer to.
B1: rabbit anti-SOD1 antibody A-7-58 H1/L1 (antibody, V domains shown)
VH: QSVEESGGRLVTPGTPLTLTCTVSGIDLSSSVMAWVRQAPGKGLEWIGIITNRGNRYYAKWAKGRFTISRTSTTVGLKITSPTTADTATYFCGRGSVWGPGTLVTVSS
VL: QVLTQTPASVSAAIGGTVTIKCQSSQSFLDDNDLAWYQKKPGRPPKRLIKSASTLDSGVPSRFSGSGSGTQFTLTISDVQCADAATYYCLGDYDCSVGDCSAFGGGTEVVVKG
notes: Rabbit monoclonal antibody; also called A-58 H1 + A-58 L1
B2: rabbit anti-SOD1 antibody A-7-63 H2/L1 (antibody)
heavy: QSVGESGGGLVTPGTPLTLTCTVSGFSLSSYGVSWVRQAPGKGLEYIGFISTRGNPYYASWAKGRFTISKTSTTVDLKITSPTTEDTATYFCAGATVVGDSIWGPGTLVTVSSGQPKAPSVFPLAPCCGDTPSSTVTLGCLVKGYLPEPVTVTWNSGTLTNGVRTFPSVRQSSGLYSLSSVVSVTSSSQPVTCNVAHPATNTKVDKTVAPSTCSKPTCPPPELLGGPSVFIFPPKPKDTLMISRTPEVTCVVVDVSQDDPEVQFTWYINNEQVRTARPPLREQQFNSTIRVVSTLPIAHQDWLRGKEFKCKVHNKALPAPIEKTISKARGQPLEPKVYTMGPPREELSSRSVSLTCMINGFYPSDISVEWEKNGKAEDNYKTTPAVLDSDGSYFLYSKLSVPTSEWQRGDVFTCSVMHEALHNHYTQKSISRSPGK
light: QVLTQTASSVSAAVGGTVTISCQSSQSVYKGYWQAWYQQKPGQPPKLLIYETSTLASGVPSRFSGSGSGTQFTLTISGVQCDDAATYYCAGGYSNNIYTFGGGTEVVVKGDPVAPTVLIFPPAADQVATGTVTIVCVANKYFPDVTVTWEVDGTTQTTGIENSKTPQNSADCTYNLSSTLTLTSTQYNSHKEYTCKVTQGTTSVVQSFNRGDC
notes: Rabbit monoclonal antibody; also called A-63 H2 + A-63 L1
B3: rabbit anti-SOD1 antibody A-7-63 H3/L1 (antibody)
heavy: B2 heavy with G4E
light: B2 light
notes: Rabbit monoclonal antibody; also called A-63 H3 + A-63 L1

target: T1, aggregated SOD1 (UniProt P00441 2-154); experiment: indirect ELISA; OD on aggregated SOD1 over OD on dimeric SOD1
T1 construct: Same protein as Dim SOD1, in a different conformational state; also called Agg SOD1
T1 sequence (P00441 2-154 limits assumed): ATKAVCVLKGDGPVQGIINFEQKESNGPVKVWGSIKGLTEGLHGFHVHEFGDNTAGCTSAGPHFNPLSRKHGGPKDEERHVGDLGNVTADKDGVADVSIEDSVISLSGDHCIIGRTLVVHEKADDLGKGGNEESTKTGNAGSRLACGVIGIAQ
Procedure: (§1) Supernatants producing hybridoma cell cultures producing rabbit monoclonal antibodies are analyzed by indirect ELISA for antibody activity on plates coated with 1 μg/well of peptide or protein antigen. […] The binding of anti-SOD1 antibodies were also characterized by ratio analyzes.

Binder | Ab conc (ng/mL) at peak agg/dim OD ratio [ng/mL] | Peak agg/dim OD ratio
B1 | 10.3 | 12.7
B2 | 6.01 | 10.7
B3 | 5.11 | 11.6

target: T1, aggregated SOD1; experiment: indirect ELISA; ratio of the EC50 values on aggregated and dimeric SOD1
Procedure: as §1

Binder | Ratio Agg/Dim SOD1 EC50
B1 | 30.4
B2 | 26.7
B3 | 32.8
